Data set [1] addresses FLAG-tag-labeled human SMAD3, expressed in LL29 cells from expression vector pEZ-M11 Flag-hSmad3 (UniProt P84022).
In data set [2] the target is GST-fusion SMAD3 protein (Sigma-Aldrich Co. LLC.) (UniProt P84022).
Sequence of GST-fusion SMAD3 protein (Sigma-Aldrich Co. LLC.) (P84022 whole entry, looked up, the tested form may be a part): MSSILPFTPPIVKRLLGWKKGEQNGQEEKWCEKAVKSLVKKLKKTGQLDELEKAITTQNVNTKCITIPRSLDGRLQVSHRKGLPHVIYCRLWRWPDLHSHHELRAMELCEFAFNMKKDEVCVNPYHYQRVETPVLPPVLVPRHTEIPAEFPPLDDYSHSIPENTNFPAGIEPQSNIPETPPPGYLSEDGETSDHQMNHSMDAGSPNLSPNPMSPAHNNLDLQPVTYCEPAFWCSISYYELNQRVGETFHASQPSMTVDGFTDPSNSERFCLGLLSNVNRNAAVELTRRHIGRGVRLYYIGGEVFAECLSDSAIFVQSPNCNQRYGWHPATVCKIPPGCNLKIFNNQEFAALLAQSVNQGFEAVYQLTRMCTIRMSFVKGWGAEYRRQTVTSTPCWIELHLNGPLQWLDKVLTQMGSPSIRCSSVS

Sequence of His-fusion NEK6 protein (Eurofins Scientific SE) (chain, as listed by the source): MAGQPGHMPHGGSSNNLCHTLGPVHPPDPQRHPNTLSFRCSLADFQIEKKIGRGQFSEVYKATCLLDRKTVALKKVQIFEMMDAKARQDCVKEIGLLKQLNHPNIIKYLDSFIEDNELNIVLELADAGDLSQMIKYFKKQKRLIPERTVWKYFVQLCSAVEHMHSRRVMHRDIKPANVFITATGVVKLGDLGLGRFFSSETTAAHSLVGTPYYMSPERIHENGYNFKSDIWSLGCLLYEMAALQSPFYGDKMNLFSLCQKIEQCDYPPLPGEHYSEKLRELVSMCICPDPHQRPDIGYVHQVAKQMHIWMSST
Sequence of FLAG-tag-labeled human SMAD3, expressed in LL29 cells from expression vector pEZ-M11 Flag-hSmad3 (P84022 whole entry, looked up, the tested form may be a part): as the sequence (P84022 whole entry, looked up, the tested form may be a part) above

With “human NEK6 protein (NIMA-related serine/threonine kinase 6), expressed in LL29 cells from expression vector pEZ-M02 Nek6”, the “amount of phosphorylated SMAD3 protein (Western blot of anti-FLAG coimmunoprecipitate)” value in data set [1] is on record as “transfection of a human NEK6 expression vector caused the amount of phosphorylated SMAD3 protein to be elevated”.

Regarding “His-fusion NEK6 protein (Eurofins Scientific SE)”, in data set [2], the “amount of phosphorylated SMAD3 (Western blot after in vitro kinase reaction with purified proteins)” value is “By using NEK6 protein, the amount of phosphorylated SMAD3 was elevated”.

For the origin of these results see US20210087556.
